Positions count from the first letter of the chain named. Numbers in names are those of the source. Read-outs that look alike come from different tables or passages of the source.
Key:
[1] = biological target: T1, human CD25 (recombinant soluble) (human, UniProt P01589 22-240); assay: competition ELISA on plate-coated CD25: competitor antibody titrated against biotinylated daclizumab, OD415
T1 construct: extracellular domain; bought protein; also called IL2-Rα; recombinant human IL2-Rα
T1 sequence (looked up): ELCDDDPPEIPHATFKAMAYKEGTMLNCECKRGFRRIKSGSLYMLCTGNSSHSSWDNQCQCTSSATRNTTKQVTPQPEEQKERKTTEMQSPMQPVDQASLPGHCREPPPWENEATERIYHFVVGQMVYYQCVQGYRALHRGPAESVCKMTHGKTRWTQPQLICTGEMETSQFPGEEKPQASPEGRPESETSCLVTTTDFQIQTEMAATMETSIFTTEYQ

[2] = biological target: T1, human CD25 (recombinant soluble); assay: as above; remark: listed apart in the source
[3] = biological target: T2, recombinant human CD25 (IL2-Rα) (human, UniProt P01589 22-213, limits assumed); assay: direct-binding ELISA on plate-coated recombinant human IL2-Rα; EC50 benchmarked to DAC-HYP
T2 construct: Bought protein; also called recombinant human IL2-Rα; recombinant soluble human CD25
T2 sequence (looked up): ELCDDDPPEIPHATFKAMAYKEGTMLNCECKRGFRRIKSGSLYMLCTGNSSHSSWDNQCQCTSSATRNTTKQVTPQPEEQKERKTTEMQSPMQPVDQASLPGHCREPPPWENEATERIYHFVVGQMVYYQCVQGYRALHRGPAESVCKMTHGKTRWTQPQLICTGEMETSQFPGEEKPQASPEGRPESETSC
Method: MaxiSorp ELISA plates (Nunc Nalge International) were coated overnight at 4° C. with 100 μl/well of a 50 ng/ml solution of recombinant human IL2-Rα (R&D Systems or PeproTech, Inc., Rocky Hill, N.J.) in DPBS (Invitrogen Corporation), washed with Wash Buffer (PBS containing 0.1% Tween 20), and blocked for 30 min at room temperature with 200 μl/well of SuperBlock Blocking Buffer in TBS (Pierce Chemical Company). After washing with Wash Buffer, test antibodies (starting at 4 μg/ml and serially diluted 3-fold) in 100 μl/well of ELISA buffer (PBS containing 1% BSA and 0.1% Tween 20) were added in duplicate. After incubating the plates for 1 hr at room temperature, and washing with Wash Buffer, bound antibodies were detected using 100 μl/well of a 1:20,000 dilution of HRP-conjugated goat anti-human IgG (Southern Biotechnology Associates, Inc.) in ELISA buffer. After incubating for 1 hr at room temperature, and washing with Wash Buffer, color development was performed by adding 150 μl/well of TMB Peroxidase Substrate/Peroxidase Solution B (KPL, Inc.). After incubating for 8 min at room temperature, color development was stopped by adding 50 μl/well of 2 N sulfuric acid. Absorbance was read at 450 nm.

[4] = biological target: T2, recombinant human CD25 (IL2-Rα); assay: SPR (BIAcore), antibody captured by anti-human Fc, soluble human CD25 as analyte, n=3
Method: (§1) For this capture approach, 30 μg/ml of GAHFc was immobilized to achieve a high response unit (20,000 RU) on each flow cell on the Research-grade CMS sensor chip using the BIAcore amine coupling reagents (N-ethyl-N′-dimethylamino-propylcarbodiimide, EDC; N-hydroxysuccinimide, NHS; and ethanolamine HCl, pH 8.5). […] A 3 min association phase of CD25 was followed by a 15 min injection of HBS-P running buffer (10 mM HEPES, 150 mM sodium chloride, 0.005% P-20 surfactant, pH 7.4) to monitor dissociation for each binding cycle, with a different CD25 concentration per cycle. The surface was regenerated with 20 mM HCl at 100 μl/min flow rate at the end of each cycle. […] Double referencing was applied in each analysis to eliminate background responses from reference surface and buffer only control (0 nM). […] Each set of experiments was performed three times to assess the standard deviation of the data.
(§2) Modified antibody proteins were tested for binding affinity using a surface plasmon resonance assay format in a BIAcore device. […] Recombinant soluble human CD25 was flowed over the sensor chip and changes in mass were detected.

[5] = biological target: T2, recombinant human CD25 (IL2-Rα); assay: SPR (BIAcore), affinity benchmarked to DAC-HYP, n=3
Method: Double referencing was applied in each analysis to eliminate background responses from reference surface and buffer only control (0 nM). […] Each set of experiments was performed three times to assess the standard deviation of the data.
Modified antibody proteins were tested for binding affinity using a surface plasmon resonance assay format in a BIAcore device. […] Recombinant soluble human CD25 was flowed over the sensor chip and changes in mass were detected. The data was interpreted to yield kₐ, kd and KD values for all the proteins tested.

CD25 (recombinant) [6] = biological target: T3, CD25 (recombinant) (human, UniProt P01589 22-213, limits assumed); assay: SPR (BIAcore)
T3 construct: bought protein; also called IL2-R alpha; IL2-Rα
T3 sequence (looked up): T2 sequence (looked up)

CD25 (recombinant) [7] = biological target: T3, CD25 (recombinant); assay: ELISA, relative to wild type
CD25 (recombinant) [8] = biological target: T3, CD25 (recombinant); assay: ELISA, relative to wild type; * = similar to WT
cynomolgous CD25-HA = biological target: T4, cynomolgous CD25-HA (cynomolgous monkey, UniProt H6WS54 22-240); assay: SPR (BIAcore), antibody captured by anti-human Fc, cynomolgous CD25-HA as analyte, n=3
T4 construct: also called cynomolgous monkey CD25; cmCD25; not shown: exact C-terminal limit of the PDL BioPharma construct
T4 sequence: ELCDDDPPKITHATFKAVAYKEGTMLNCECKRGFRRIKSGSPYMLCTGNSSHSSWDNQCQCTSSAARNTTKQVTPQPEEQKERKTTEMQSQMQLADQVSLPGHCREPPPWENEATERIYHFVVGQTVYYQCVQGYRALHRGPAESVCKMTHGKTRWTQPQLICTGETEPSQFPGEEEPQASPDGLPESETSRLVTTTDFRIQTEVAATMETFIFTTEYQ

[9] = biological target: T2, recombinant human CD25 (IL2-Rα); assay: SPR (BIAcore), antibody captured by anti-human Fc, soluble human CD25 as analyte, n=3; remark: listed apart in the source
Method: as §1, §2

B1: NuhuTac (antibody, V domains shown)
VH: EVQLVQSGAEVKKPGASVKVSCKASGYTFTSYRMHWVRQAPGQGLEWIGYINPSTGYTEYNQKFKDKATMTADKSISTAYMELSSLRSEDTAVYYCARGGGVFDYWGQGTLVTVSS
VL: EIVLTQSPATLSLSPGERATLTCSASSSISYMHWFQQKPGQAPRLLIYTTSNLASGIPARFSGSGSGTDYTLTISSLEPEDFAVYYCHQRSTYPLTFGQGTKVEIK
notes: rehumanization of mouse anti-Tac on frameworks R3.5H5G (VH) and ka3d1 (VL); also called rehumanized anti-Tac; rehumanized antibody
Which results are given for B1?
EC50 [1]: 0.71 µg/mL; EC50 [2]: 0.49 µg/mL

B2: DAC I48L (antibody, IgG1, name in Kabat numbering, V domains shown)
VH: B1 VH with E1Q, A16S, I48L, M70I, K74E, I76T, S77N
VL: DIQMTQSPSTLSASVGDRVTITCSASSSISYMHWYQQKPGKAPKLLIYTTSNLASGVPARFSGSGSGTEFTLTISSLQPDDFATYYCHQRSTYPLTFGQGTKVEVK
notes: E.HAT variant, IgG1/kappa
B2 was tested. Which “Relative % Potency” value [3] did it give?
The value was 132%.

And the Kd [4]?
Its Kd is 0.597 nM.

And the koff [4]?
The koff was 0.000222 s⁻¹.

And the kon [4]?
The kon was 372000 M⁻¹ s⁻¹.

And the “Relative % KD” value [5]?
Its value is 83%.

B3: DAC I48V (antibody, IgG1, name in Kabat numbering, V domains shown)
VH: B1 VH with E1Q, A16S, I48V, M70I, K74E, I76T, S77N
VL: B2 VL
notes: E.HAT variant, IgG1/kappa
Which “Relative % Potency” value [3] does the source give for B3 here?
The value was 109%.

And the Kd [4]?
Its Kd is 0.493 nM.

What about the koff [4] of the same binder?
The koff was 0.000183 s⁻¹.

And the kon [4]?
The kon was 371000 M⁻¹ s⁻¹.

And the “Relative % KD” value [5]?
The value was 100%.

B4: daclizumab variant S79 (antibody, IgG1, name in Kabat numbering, V domains shown)
VH: B1 VH with E1Q, A16S, M70I, I76T, S77N
VL: B2 VL
notes: IgG1; Kabat positions; also called E73K
Which Kd (CD25 (recombinant) [6]) does the source give for B4 here?
The Kd was 0.388 nM.

What about the “ELISA (wt = 1)” value (CD25 (recombinant) [7]) of the same binder?
Its value is 1.5 fold (wt = 1).

B5: daclizumab variant S78 (antibody, IgG1, name in Kabat numbering, V domains shown)
VH: B1 VH with E1Q, A16S, I48V, M70I, K74E, I76T, S77N
VL: B2 VL
notes: IgG1; Kabat positions; also called I48V; DAC I48V
B5 was tested. Which “ELISA (wt = 1)” value (CD25 (recombinant) [8]) did it give?
The value was 1.1 fold (wt = 1).

And the “Fold improvement (KD)” value (CD25 (recombinant) [6])?
Its value is 1 fold over wild type.

What about the Kd (CD25 (recombinant) [6]) of the same binder?
The Kd was 0.493 nM.

And the koff (CD25 (recombinant) [6])?
The koff was 0.000183 s⁻¹.

What about the kon (CD25 (recombinant) [6]) of the same binder?
Its kon is 371000 M⁻¹ s⁻¹.

B6: daclizumab variant S76 (antibody, IgG1, name in Kabat numbering, V domains shown)
VH: B1 VH with E1Q, A16S, I48L, M70I, K74E, I76T, S77N
VL: B2 VL
notes: IgG1; Kabat positions; also called I48L; DAC I48L
What does the source list for B6?
ELISA (wt = 1) (CD25 (recombinant) [8]): 1.32 fold (wt = 1); Fold improvement (KD) (CD25 (recombinant) [6]): 0.9 fold over wild type; Kd (CD25 (recombinant) [6]): 0.597 nM; koff (CD25 (recombinant) [6]): 0.000222 s⁻¹; kon (CD25 (recombinant) [6]): 372000 M⁻¹ s⁻¹

B7: DAC I48M (antibody, IgG1, name in Kabat numbering, V domains shown)
VH: B1 VH with E1Q, A16S, I48M, M70I, K74E, I76T, S77N
VL: B2 VL
notes: E.HAT variant, IgG1/kappa
For B7, which Kd [4] is on record?
The Kd was 0.375 nM.

What about the Kd (cynomolgous CD25-HA) of the same binder?
The Kd was 0.371 nM.

What about the Kd [9] of the same binder?
The Kd was 0.357 nM.

From US20200308290A1 (AbbVie / Abbott, published 2020)
